B1: Pistol ribozyme (parent)
chain: GGGUCGUUGUUCCAUAAUCGCGUGGAUAUGGCACGCAAGUUUCUACCGGGCACCGUAAAUGUCCGACUGGAGCCGUUCGGGCGGCUAUAAACAGACCUCAGGCCCGAAGCGUGGCGGCACCUGCCGCCGGUGGUAAAAAAGAUCGGAAGAGCACACGUCU

Variants of: B1
Assay: aptazyme ON/OFF ratio, guanine; higher = stronger switching; co-transcriptional cleavage with and without guanine

Variant | aptazyme ON/OFF ratio
U7A U8A G9C U10A U11G C13G | 1.11
U7A U8A G9C U10A U11G C13U | 1.24
U7A U8A G9U C13G | 1.05
U7A U8A G9U C13U | 1.21
U7A U8A G9U C13A | 1.16
U7A U8A G9U U10A U11A C13A | 1.23
U7A U8A G9U U10A U11A C13G | 1.07
U7A U8A G9U U10A U11A C13U | 1.27
U7A U8A G9C U10G U11G C12A C13G | 1.17
U7A U8A G9C U10G U11G C12A C13A | 1.4
U7A U8A G9C U10G U11G C12A C13U | 1.41
U7A U8A G9U U10A C12G | 1.41
U7A U8A G9U U10A C12A | 1.27
U7A U8A G9U U10A C12U | 1.16
U7A U8A G9U U10C C13G | 1.03
U7A U8A G9U U10C C13A | 1.08
U7A U8A G9U U10C C13U | 1.2
U7A U8A G9C U10G C13G | 1.29
U7A U8A G9C U10G C13A | 1.24
U7A U8A G9C U10G C13U | 1.56
U7A U8A G9C U10C U11A C13G | 1.19
U7A U8A G9C U10C U11A C13U | 1.13
U7A U8A G9C U10C U11A C13A | 1.14
U7A U8A G9C U11C C12A | 1.07

Variant | aptazyme ON/OFF ratio
U7A U8A G9C U11C C12G | 1.1
U7A U8A G9C U11C C12U | 1.09
U7A U8A G9C U10G C12A C13G | 1.09
U7A U8A G9C U10G C12A C13A | 1.18
U7A U8A G9C U10G C12A C13U | 1.27
U7A U8A G9C U11A C12A C13A | 1.08
U7A U8A G9C U11A C12A C13G | 1.18
U7A U8A G9C U11A C12A C13U | 1.15
U7A U8A G9U C12A | 1.19
U7A U8A G9U C12G | 1.45
U7A U8A G9U C12U | 1.32
U7A U8A G9U C12U C13U | 1.22
U7A U8A G9U C12U C13G | 1.16
U7A U8A G9U C12U C13A | 1.34
U7A U8A G9C U10A C12U C13U | 1.04
U7A U8A G9C U10A C12U C13G | 1.1
U7A U8A G9C U10A C12U C13A | 1.09
U7A U8A G9C U11G C12A C13G | 1.22
U7A U8A G9C U11G C12A C13U | 1.23
U7A U8A G9C U11G C12A C13A | 1.17
U7A U8A G9U U10A U11G C12G C13U | 1.36
U7A U8A G9U U10A U11G C12G C13G | 1.23
U7A U8A G9U U10A U11G C12G C13A | 1.23
U7A U8A G9C U10C U11A C12A C13G | 1.03

Variant | aptazyme ON/OFF ratio
U7A U8A G9C U10C U11A C12A C13U | 1.06
U7A U8A G9C U10C U11A C12A C13A | 1.02
U7A U8A G9C U11G | 1.47
U7A U8A G9C U11A | 1.25
U7A U8A G9C U11C | 1.05
U7A U8A G9C U11C C12U C13A | 1.13
U7A U8A G9C U11C C12U C13U | 1.08
U7A U8A G9C U11C C12U C13G | 1.11
U7A U8A G9C U10A U11G C12G | 1.19
U7A U8A G9C U10A U11G C12A | 1.05
U7A U8A G9C U10A U11G C12U | 1.22
U7A U8A G9C U10A U11C C12A C13U | 1.2
U7A U8A G9C U10A U11C C12A C13A | 1.12
U7A U8A G9C U10A U11C C12A C13G | 1.12
U7A U8A G9U U10A U11C C12A C13G | 1.08
U7A U8A G9U U10A U11C C12A C13A | 1.11
U7A U8A G9U U10A U11C C12A C13U | 1.14
U7A U8A G9C U11A C13A | 1.21
U7A U8A G9C U11A C13U | 1.17
U7A U8A G9C U11A C13G | 1.06
U7A U8A G9C U10A C12U | 1.15
U7A U8A G9C U10A C12G | 1.25
U7A U8A G9C U10G U11G C12U C13U | 1.18
U7A U8A G9C U10G U11G C12U C13G | 1.15

Variant | aptazyme ON/OFF ratio
U7A U8A G9C U10G U11G C12U C13A | 1.17
U7A U8A G9C U10A U11A C12A C13A | 1.37
U7A U8A G9C U10A U11A C12A C13U | 1.14
U7A U8A G9C U10A U11A C12A C13G | 1.07
U7A U8A G9C U10G C12G C13U | 1.22
U7A U8A G9C U10G C12G C13G | 1.11
U7A U8A G9C U10G C12G C13A | 1.22
U7A U8A G9C U11G C13U | 1.31
U7A U8A G9C U11G C13G | 1.1
U7A U8A G9C U11G C13A | 1.22
U7A U8A G9U U10A U11A C12A | 1.22
U7A U8A G9U U10A U11A C12U | 1.34
U7A U8A G9U U10A U11A C12G | 1.23
U7A U8A G9U U10A U11C C12G C13U | 1.18
U7A U8A G9U U10A U11C C12G C13G | 1.15
U7A U8A G9U U10A U11C C12G C13A | 1.18
U7A U8A G9C U10A U11A C12U C13A | 1.2
U7A U8A G9C U10A U11A C12U C13G | 1.18
U7A U8A G9C U10A U11A C12U C13U | 1.13
U7A U8A G9C U10C U11G C13A | 1.06
U7A U8A G9C U10C U11G C13U | 1.05
U7A U8A G9C U10C U11G C13G | 1.05
U7A U8A G9U | 2.12
U7A U8A G9U U10A U11A C12G C13A | 1.15

Variant | aptazyme ON/OFF ratio
U7A U8A G9U U10A U11A C12G C13G | 1.14
U7A U8A G9U U10A U11A C12G C13U | 1.04
U7A U8A G9C U11A C12G | 1.19
U7A U8A G9C U11A C12A | 1.22
U7A U8A G9C U11A C12U | 1.2
U7A U8A G9C U10A C13U | 1.18
U7A U8A G9C U10A C13A | 1.21
U7A U8A G9C U10A C13G | 1.07
U7A U8A G9C U10C U11C C13U | 1.04
U7A U8A G9C U10C U11C C13G | 1.07
U7A U8A G9C U10C U11C C13A | 1.03
U7A U8A G9C U11G C12G C13U | 1.16
U7A U8A G9C U11G C12G C13G | 1.32
U7A U8A G9C U11G C12G C13A | 1.31
U7A U8A G9C U10A U11A C13U | 1.27
U7A U8A G9C U10A U11A C13G | 1.09
U7A U8A G9C U10A U11A C13A | 1.23
U7A U8A G9C U10G U11A C12U | 1.03
U7A U8A G9C U10G U11A C12G | 1.32
U7A U8A G9C U10G U11A C12A | 1.29
U7A U8A G9C U10G U11C C12G C13U | 1.22
U7A U8A G9C U10G U11C C12G C13A | 1.36
U7A U8A G9C U10G U11C C12G C13G | 1.39
U7A U8A G9C U10A U11C C12G C13U | 1.27

Variant | aptazyme ON/OFF ratio
U7A U8A G9C U10A U11C C12G C13G | 1.14
U7A U8A G9C U10A U11C C12G C13A | 1.18
U7A U8A G9C U10A C12A C13U | 1.18
U7A U8A G9C U10A C12A C13G | 1.16
U7A U8A G9C U10A C12A C13A | 1.11
U7A U8A G9U U10C C12A | 1.17
U7A U8A G9U U10C C12G | 1.43
U7A U8A G9U U10C C12U | 1.24
U7A U8A G9C U10C C12G | 1.04
U7A U8A G9C U10C C12U | 1.07
U7A U8A G9C U10C C12A | 1.03
U7A U8A G9C U10G U11G C13A | 1.28
U7A U8A G9C U10G U11G C13U | 1.48
U7A U8A G9C U10G U11G C13G | 1.18
U7A U8A G9C U11G C12U C13A | 1.37
U7A U8A G9C U11G C12U C13G | 1.23
U7A U8A G9C U11G C12U C13U | 1.09
U7A U8A G9C U10C C13A | 1.04
U7A U8A G9C U10C C13U | 1.12
U7A U8A G9C U10C C13G | 1
U7A U8A G9U U10A U11G C12A C13U | 1.18
U7A U8A G9U U10A U11G C12A C13A | 1.07
U7A U8A G9U U10A U11G C12A C13G | 1.12
U7A U8A G9U U10A U11A C12A C13A | 1.35

Variant | aptazyme ON/OFF ratio
U7A U8A G9U U10A U11A C12A C13U | 1.18
U7A U8A G9U U10A U11A C12A C13G | 1.2
U7A U8A G9U U10A C13U | 1.24
U7A U8A G9U U10A C13G | 1.08
U7A U8A G9U U10A C13A | 1.43
U7A U8A G9C U11A C12G C13U | 1.21
U7A U8A G9C U11A C12G C13A | 1.15
U7A U8A G9C U11A C12G C13G | 1.2
U7A U8A G9U U10A C12U C13U | 1.13
U7A U8A G9U U10A C12U C13G | 1.23
U7A U8A G9U U10A C12U C13A | 1.05
U7A U8A G9C U11C C12G C13A | 1.06
U7A U8A G9C U11C C12G C13G | 1.07
U7A U8A G9C U11C C12G C13U | 1.07
U7A U8A G9C U10G U11C C13A | 1.09
U7A U8A G9C U10G U11C C13U | 1.04
U7A U8A G9C U10G U11C C13G | 1.04
U7A U8A G9C U10C U11A C12U | 1.07
U7A U8A G9C U10C U11A C12A | 1.06
U7A U8A G9C U10C U11A C12G | 1.06
U7A U8A G9C U10A C12G C13G | 1.13
U7A U8A G9C U10A C12G C13U | 1.16
U7A U8A G9C U10A C12G C13A | 1.15

Reference: the RNAGym collection of RNA variant scans (doi:10.1021/acssynbio.7b00057)
